From patent publication US9994628B2, “Peptides and combination of peptides for use in immunotherapy against various tumors” (IMMATICS BIOTECHNOLOGIES GMBH, priority 2015, dated 2018)

Molecular target: HLA-A*02:01 (Homo sapiens, UniProt P04439, D140Y/D185E/D98H/E176V/E277Q/G131W/G231S/I119V/I121R/I166T/I218V/L300P/L318F/N151K/N90K/P208A/P217A/Q86G/Q94H/R138H/R169H/T345S)
Test: MHC binding assay: UV-ligand exchange and β2m ELISA (peptide exchange yield, Table 7)
Details: binding of HLA-class I restricted peptides to HLA-A*02:01, UV-ligand exchange
From the text: Candidate peptides for T cell based therapies according to the present invention were further tested for their MHC binding capacity (affinity). The individual peptide-MHC complexes were produced by UV-ligand exchange, where a UV-sensitive peptide is cleaved upon UV-irradiation, and exchanged with the peptide of interest as analyzed. Only peptide candidates that can effectively bind and stabilize the peptide-receptive MHC molecules prevent dissociation of the MHC complexes. To determine the yield of the exchange reaction, an ELISA was performed based on the detection of the light chain (β2 m) of stabilized MHC complexes. The assay was performed as generally described in Rodenko et al. (Rodenko et al., 2006).
96 well MAXISorp plates (NUNC) were coated over night with 2 ug/ml streptavidin in PBS at room temperature, washed 4× and blocked for 1 h at 37° C. in 2% BSA containing blocking buffer. Refolded HLA-A*02:01/MLA-001 monomers served as standards, covering the range of 15-500 ng/ml. Peptide-MHC monomers of the UV-exchange reaction were diluted 100 fold in blocking buffer. Samples were incubated for 1 h at 37° C., washed four times, incubated with 2 ug/ml HRP conjugated anti-β2 m for 1 h at 37° C., washed again and detected with TMB solution that is stopped with […]. Absorption was measured at 450 nm. Candidate peptides that show a high exchange yield (preferably higher than 50%, most preferred higher than 75%) are generally preferred for a generation and production of antibodies or fragments thereof, and/or T cell receptors or fragments thereof, as they show sufficient avidity to the MHC molecules and prevent dissociation of the MHC complexes.

Substance | Peptide exchange (MHC class I binding score, peptide exchange yield)
1 (KLQEKIQEL; listed as Homo sapiens) [compound 1] | ++++ (≥75% = ++++)
3 (RVIDDSLVVGV; listed as Homo sapiens) [compound 3] | +++ (≥50% = +++)
4 (VLFGELPAL; listed as Homo sapiens) [compound 4] | +++ (≥50% = +++)
5 (GLVDIMVHL; listed as Homo sapiens) [compound 5] | +++ (≥50% = +++)
6 (FLNAIETAL; listed as Homo sapiens) [compound 6] | ++++ (≥75% = ++++)
7 (ALLQALMEL; listed as Homo sapiens) [compound 7] | +++ (≥50% = +++)
9 (SLITGQDLLSV; listed as Homo sapiens) [compound 9] | +++ (≥50% = +++)
10 (QLIEKNWLL; listed as Homo sapiens) [compound 10] | +++ (≥50% = +++)
11 (LLDPKTIFL; listed as Homo sapiens) [compound 11] | +++ (≥50% = +++)
12 (RLLDPKTIFL; listed as Homo sapiens) [compound 12] | +++ (≥50% = +++)
13 (RLHDENILL; listed as Homo sapiens) [compound 13] | +++ (≥50% = +++)
14 (YTFSGDVQL; listed as Homo sapiens) [compound 14] | +++ (≥50% = +++)
16 (SLADLSLLL; listed as Homo sapiens) [compound 16] | +++ (≥50% = +++)
17 (GLLPSAESIKL; listed as Homo sapiens) [compound 17] | ++++ (≥75% = ++++)
18 (KTASINQNV; listed as Homo sapiens) [compound 18] | ++ (≥20% = ++)
19 (KVFELDLVTL; listed as Homo sapiens) [compound 19] | ++ (≥20% = ++)
20 (ALVEKGEFAL; listed as Homo sapiens) [compound 20] | ++ (≥20% = ++)
21 (YLMDDFSSL; listed as Homo sapiens) [compound 21] | +++ (≥50% = +++)
22 (LMYPYIYHV; listed as Homo sapiens) [compound 22] | +++ (≥50% = +++)
23 (ALLSPLSLA; listed as Homo sapiens) [compound 23] | +++ (≥50% = +++)
24 (KVWSDVTPL; listed as Homo sapiens) [compound 24] | +++ (≥50% = +++)

Substance | Peptide exchange (MHC class I binding score, peptide exchange yield)
25 (LLWGHPRVALA; listed as Homo sapiens) [compound 25] | +++ (≥50% = +++)
26 (VLDGKVAVV; listed as Homo sapiens) [compound 26] | +++ (≥50% = +++)
27 (GLLGKVTSV; listed as Homo sapiens) [compound 27] | +++ (≥50% = +++)
28 (IKVTDPQLLEL; listed as Homo sapiens) [compound 28] | ++ (≥20% = ++)
29 (KMISAIPTL; listed as Homo sapiens) [compound 29] | ++ (≥20% = ++)
30 (IITEVITRL; listed as Homo sapiens) [compound 30] | +++ (≥50% = +++)
31 (GLLETTGLLAT; listed as Homo sapiens) [compound 31] | +++ (≥50% = +++)
33 (TLDRNSLYV; listed as Homo sapiens) [compound 33] | ++ (≥20% = ++)
35 (VIIKGLEEI; listed as Homo sapiens) [compound 35] | ++ (≥20% = ++)
36 (TVLQELINV; listed as Homo sapiens) [compound 36] | +++ (≥50% = +++)
37 (QIVELIEKI; listed as Homo sapiens) [compound 37] | ++ (≥20% = ++)
38 (VLQQESNFL; listed as Homo sapiens) [compound 38] | ++ (≥20% = ++)
40 (KIWEELSVLEV; listed as Homo sapiens) [compound 40] | +++ (≥50% = +++)
41 (IVTEIISEI; listed as Homo sapiens) [compound 41] | +++ (≥50% = +++)
42 (KQMSISTGL; listed as Homo sapiens) [compound 42] | ++ (≥20% = ++)
44 (AVFNLVHVV; listed as Homo sapiens) [compound 44] | +++ (≥50% = +++)
45 (FLPVSVVYV; listed as Homo sapiens) [compound 45] | +++ (≥50% = +++)
47 (GLNGFNVLL; listed as Homo sapiens) [compound 47] | +++ (≥50% = +++)
48 (KISDFGLATV; listed as Homo sapiens) [compound 48] | +++ (≥50% = +++)
49 (KLIGNIHGNEV; listed as Homo sapiens) [compound 49] | ++ (≥20% = ++)
50 (ILLSVLHQL; listed as Homo sapiens) [compound 50] | +++ (≥50% = +++)

Substance | Peptide exchange (MHC class I binding score, peptide exchange yield)
51 (LDSEALLTL; listed as Homo sapiens) [compound 51] | ++ (≥20% = ++)
52 (TIGIPFPNV; listed as Homo sapiens) [compound 52] | ++ (≥20% = ++)
53 (AQHLSTLLL; listed as Homo sapiens) [compound 53] | + (≥10% = +)
54 (YLVPGLVAA; listed as Homo sapiens) [compound 54] | +++ (≥50% = +++)
55 (HLFDKIIKI; listed as Homo sapiens) [compound 55] | +++ (≥50% = +++)
57 (TLYPGRFDYV; listed as Homo sapiens) [compound 57] | ++ (≥20% = ++)
58 (HLLGEGAFAQV; listed as Homo sapiens) [compound 58] | +++ (≥50% = +++)
59 (ALADGIKSFLL; listed as Homo sapiens) [compound 59] | +++ (≥50% = +++)
60 (YLFSQGLQGL; listed as Homo sapiens) [compound 60] | +++ (≥50% = +++)
61 (ALYPKEITL; listed as Homo sapiens) [compound 61] | +++ (≥50% = +++)
62 (SLVENIHVL; listed as Homo sapiens) [compound 62] | +++ (≥50% = +++)
63 (KLLPMVIQL; listed as Homo sapiens) [compound 63] | +++ (≥50% = +++)
64 (SLYAGSNNQV; listed as Homo sapiens) [compound 64] | ++ (≥20% = ++)
65 (SLSEKSPEV; listed as Homo sapiens) [compound 65] | ++ (≥20% = ++)
66 (AMFPDTIPRV; listed as Homo sapiens) [compound 66] | ++ (≥20% = ++)
67 (FLIENLLAA; listed as Homo sapiens) [compound 67] | +++ (≥50% = +++)
68 (QLMNLIRSV; listed as Homo sapiens) [compound 68] | +++ (≥50% = +++)
69 (LKVLKADVVL; listed as Homo sapiens) [compound 69] | ++ (≥20% = ++)
70 (GLTEKTVLV; listed as Homo sapiens) [compound 70] | ++ (≥20% = ++)
71 (HMSGKLTNV; listed as Homo sapiens) [compound 71] | ++ (≥20% = ++)
72 (VLSTRVTNV; listed as Homo sapiens) [compound 72] | ++ (≥20% = ++)
